Results as given in the supplement of paper PMC9170038.

Test system: MS2 coat protein
Assay: apparent KD of MS2 coat protein; higher = weaker reporter binding
Settings: Eterna round: R107
How it was run: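 Each design's apparent KD comes from the median of binding-curve fits to its normalised clusters. Those clusters carried RNA switches transcribed on-chip from Illumina sequencing clusters. SNAP-549-labelled MS2 coat protein was titrated onto them in twofold steps (0.7 or 1.5 nM to 3 µM; per step 0.8–1.5 h down to 10–20 min). Conditions were 100 mM Tris-HCl pH 7.5, 80 mM KCl, 4 mM MgCl2, without or with constant ligand.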

[1] = input ligand: theophylline 20 uM
[2] = input ligand: theophylline 2 mM
[3] = input ligand: tryptophan 2.4 mM

Row | Sequence | apparent KD of MS2 coat protein (input ligand: arginine 13.2 mM) [nM] | apparent KD of MS2 coat protein [1] [nM] | apparent KD of MS2 coat protein [2] [nM] | apparent KD of MS2 coat protein (input ligand: none) [nM] | apparent KD of MS2 coat protein [3] [nM]
1 | AUUAAGGAUAUGUAGACGGCGGAGAAGAGACGAGGACCGGUACGGCCGCCACUCGUGUUAGUUAACAUGAGGAUCACCCAUGUAA [#07 Tryptophan A Same State] | 51.3 | 56.1 | 69.6 | – | –
2 | AUUCAUGGAAACAUGACAUACAUUACCGGUCGAGGACCGGUACGGCCGCCACUCGGUUGGUGGCACAUGAGGAUCACCCAUGUUA [SS Tryp A #11] | 25.2 | 44.2 | 30 | – | –
3 | AUUCAUGGAAACAUGACAUAGGGAUCACUCCGAGGACCGGUACGGCCGCCACUCGCGAGGAGGCACAUGAGGAUCACCCAUGUUA [SS Tryp A #4] | 27 | 73.8 | 92.1 | – | –
4 | AUUGACGUUGCGGCCGCCACUAGGCGUUCCCGGACAUGAGGAUCACCCAUGUGCUAGAGUGUAACUAGGACCGGGUAACCUCAGC [Verevean] | 124 | 290 | 260 | 103 | 176
5 | AUUGUGAAGUCGGCCGCCACUGCAUAGUUUAACCACAUGUAACAUGAGGAUCACCCAUGUAAUGACAGGACCGGGACAAUAGUAA [JR_SSTryptoB_Sub023] | 22.2 | 41.9 | 29.9 | – | –
6 | AUUGUGAAGUCGGCCGCCACUGCAUAGUUUAACCUCUUUUAACAUGAGGAUCACCCAUGUAAUGACAGGACCGGGACAAUAGUAA [JR_SSTryptoB_Sub022] | 54.3 | 92.3 | 79.7 | – | –
7 | AUUUUUCUAUCAGAUACCAGACAACUCCAAACAUGAGGAUCACCCAUGUAUUGGGUGUUCGUCCCUUGGCAGCUGUUAAUGUUAA [JR_SSTheophyB_Sub003] | 24.6 | 18.1 | – | – | 16.9
8 | CAAAAUAUCGGAAGGAGCGCGGGUAGGCGGGUUGGAUCACAUGAGGAUCACCCAUGUAAAUCGCAGGUAGGUCGCCGAUAACGCG [XArg-B27] | 52.9 | 60.4 | 37.9 | 19.9 | 30.1
9 | CAAAGUUCGUCUCUGGUCCUCUAAUCGGCUCGAGGACCGGUACGGCCGCCACUCGCCCGACAUGAGGAUCACCCAUGUCUGUAAA [Dilaanis] | 15.5 | 23 | 16.8 | – | –
10 | CAAGAAGUAACUGAUACCAGUGUACUGACAUGAGGAUCACCCAUGUUGGGUUUUGUUGUACACCCUUGGCAGCAGAAUCUUCUUG [AstrosExyTheB#22] | 46.9 | 74.8 | – | – | 58.1
11 | CACAUGAGGAUCACCCAUGUCUGAACUGAAGGAGCGCUAAAUAAGGCAGGUAGGUCGCGGAAUCCCGGGUGCAUAUGCACCCGGG [9.aB] | 14.6 | 30.8 | 26.3 | 32 | 20.9
12 | CACGAAAGAUCGGCCGCCACUAGCCUGUGUGUACUAGCACAUGAGGAUCACCCAUGUUCUUGCGUUAGGACCGGGAUUGAGCGUG [#05 Exclusion Tryptophan B] | 17.1 | 27.9 | 33.9 | 26.8 | 25.5
13 | CAGAACAUGAGGAUCACCCAUGUUAGGGAUACCAGCUCAGACAUGGGCCCUUGGCAGCUCUAUGGCUGACGAAAGUCAGCAUCUG [#16 SameState-TheophyllineA] | 70.5 | 874 | 3.01 | 41.7 | 42.5
14 | CAGGCUAGGACGGCCGCCACUGUGGCUACGGUACAUGAGGAUCACCCAUGUUUGUGGUUGAUCUACAGGACCGGGUCCUGACACG [Letisoonri] | 22.2 | 134 | 278 | – | –
15 | CAGUCAGUCAGUCAAUGAGUGAGGCAUGAAGGAGCGUGGGAAACCACAGGUAGGUCGCAUGCGAAACAUGAGGAUCACCCAUGUU [SSArg A #3] | 29.4 | 42.5 | 51.9 | 47.9 | 26.3
16 | CAUAUAUAUUGAAGGAGCGUCGAAAAUGGGUAAACAUGAGGAUCACCCAUGUAAAGGGAACGACAGGUAGGUCGCAAUAUAUAUG [AstromonsSSArgB#4] | 115 | 199 | 177 | 181 | 146
17 | CAUGUUGUUGAAGAUACCAGAUUCUGAACGUUCACAUGAGGAUCACCCAUGUAAGUCCGAGUCCCUUGGCAGCUUAUACAGGUGG [Reatlala] | 43.9 | 50.8 | – | – | 47.7
18 | CCCAGUUAGAUCAAAGGAAUUAUACUCGAAGGAGCGUCAUAGUAGGCAGGUAGGUCGCGAGACAUGAGGAUCACCCAUGUAGAGA [azqmullin] | 30.3 | 51.2 | 41 | 37.9 | 37.8
